According to the nanobody polyreactivity screen of Harvey et al. (2022):

Experiment: yeast display, Sf9 membrane polyspecificity reagent, FACS + sequencing; frameworks hold sequencing errors
Procedure, shortened: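 Synthetic nanobody libraries on Saccharomyces cerevisiae BJ5465 were galactose-induced for 36–48 hours, stained 1 hour at 4 °C with 10% biotinylated, detergent-solubilized Sf9 membrane reagent and enriched on streptavidin microbeads. FACS then separated cells into low and high (top ~1%) gates by anti-HA (expression) and streptavidin (reagent binding) fluorescence. Genes were colony-PCR amplified, MiSeq 2 × 250 sequenced and CDR-length filtered. A clone's polyreactivity label is that of its gate of origin.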

Sequence | polyreactivity (PSR sort gate)
QVQLVESGGGLVQAGGSLRLSCAASGYIFGHYTMGWYRPAPGKEGELVAGITRGTRTYYADSVKGRFTISRDNAKNTVYLQMNSLKPEDTAVYYCAKRGPVRTQYTYYYWGQGTQVTVSS | high polyreactivity
QVQLVESRGGLVQAGGSLRLSCAASGSTLSQNAMGWYRQAPGKEREFDADISGSGDSTYYADSVKGRFTISRDNAKNTFYLQMNSLKPEDTAVYYCATPSPHVGLKWEYDYWGQGTQVTVSS | low polyreactivity
QVQLVESGGGLVQAGGSLRLSCADSGRIFYANAMGWYRQAPGKERELVAAISSGGSTYYADSVKGRFTISRDNAKNTVYLQMNSLKPEDTAVYYCAVYTHKIVRPEYDYWGQGTQVTVSA | low polyreactivity
QVQLVESGGGLVQAGGSLRLSCAASGRTFQQNAMGWYRQAPGKERELVAAINSRGGRTYYADSVKGRFTISRDNAKNTVYLQMNSLKPEDTAVYYCNAVVYTRPYTRPRYRYDYWGQGTQVTVSS | high polyreactivity
QVQLVESGGGLVQAGGSLRLSCAASGRTFPWYAMGWYRQAPGKERELVAAITISGGRTYYADSVKGRFTISRDNAKNTVYLQMNSLKPEDTAVYYCAAKTSFRYFNYAKPSYGYDYWGQGTQVTVSS | high polyreactivity
QVQLVESGGGLVQAGGSLRLSCAASGRTFALNVMGWYRQAPGKERELVAAISRSGGSTYYADSVTGRFTISRDNAKNTVYFQMNSLKPEDTAVYYGAAATHYQSYNRRDYWGEGTQVTVSS | high polyreactivity
QVQLVESGGGLVQAGGSLRLSCAASGNIFYWNVMGWYRQAPGKERELVAVISNGGRTYYADSVKGRFTISRDNAKNTVYLQMNSLKPEDTAVYYCAAEYDRLSKRYDYWGQGTQVTVSS | high polyreactivity
QVQLVESGGGLVQAGGSLRLSCAASGRTFGYYAMGWYRQAPGKERELVAAISRGGRTNYADSVKGRFTISRDNAKNTVYLQMNSLKPEDTAVYYCAKSGTIPRYTASYSLLDYWGQGTQVTVSS | low polyreactivity
QVQLVESGGGLVQAGGSLRLSCAASGYNFFSYAKGWYRQPPGKERELVAAISRGGRTYYADSVKGRFTISRDNAKNTVYLQMKILKPEDTAVYYCNAVSTPGKYGYWGQGTQVTVSS | high polyreactivity
QVQIVESGGGLVQAGGSLRLSCAASGRTFNQYAMGWYRQAPVKERELVAAISASGGNTYYADSVKGRFTISRDNAKNNVYVQMNSLKQEDTEVYYCADKQSSSRYYGNDYWGQGTQVTVSS | high polyreactivity
QVQLVESGGGLVQAGGSLRLSCAASARIFKTYAMGWYIQAPGKERELVATITWSGGSTYADSVKGRFTITRDNAKNTVYLQMNSLKPEDTAVYYCAAGRTYYSPGYRSYSGYDYWGQGTQVTLSS | high polyreactivity
QVQLVESGGGLVQAGGSLRLSCAASGSIFTRNAMGWYRQAPGKERELVARISARSGRTYYADSVKGRFTISRDNAKNTVYLQMNSLKPEDTAVYYFAVRYRGKYPFRYNYWGQGTQVTVSS | high polyreactivity
QVQLVESGGGLVQAGGSLRLSCAASGFTFRSYTMGWYIQAPGKERELVATITWNGGSTYYADSVKGRFTISRDNAKNTVYLQMNSLKPEDTAVYYCAADPPWNFWNYYRMDYWGQGTQVTVSS | low polyreactivity
QVQLVQSGGGLVQAGGSLRLICAASGGTFSYNTMGWYRQAPGKVRELVAVITFSGGSTYYADCVKGRFTISRDNAKNTVYLQMNSLKQEDTAVYYCAADWLSKYDYWGQGTQVTVSS | low polyreactivity
QVQLVESGGGLVQAGGSLRLSCAASGRTFYYYAMGWYRQAPGKERELVAAISWRGGSTYYADSVKGRFTISRDNAKNTVYLQMNSLKPEDTAVYYCAVYTTYSRYRGYDYWGQGTQVTVSS | high polyreactivity
QVQLVESGGGLVQAGGSLRLTCAASGFTIGYYAMGWYRQAPGKERELVAAISWSGGRTYYADSVKGRFTISRDNAKNTVYLQMNSLKPEDTAVYDCAADGQQTYSGYDYWGQGTQVTVSS | high polyreactivity
QVQLQESGGGLVQAGGILRLSCAASGSIFHLHIMCWYRQEPGKERESVAAISNGTSTYYADSVKGRFTICRDNAKNTVYLQMNSPKPDDTAVYYCAALFLVSKHHHYWGEGTQVTVSS | low polyreactivity
